Source: patent US20240218346A1, “PHOSPHOKETOLASE VARIANTS AND METHODS OF USE” (Genomatica, Inc., priority 2021, published 2024)
Residue numbers refer to the chain shown, from its start. Names and notes keep the numbering of the source. Blank lines part the entries; values can stand above or below the molecule they belong to.

How the values were obtained:
[1] = system: Collinsella aerofaciens xylulose-5-phosphate/fructose-6-phosphate phosphoketolase (D3), wild type, SEQ ID NO: 2; test: Kinetics, Hydroxymate based colorimetric assay for FPK activity (F6P); type: biochemical
Source text: Mutagenesis techniques were used to generate engineered phosphoketolases based on one of two template phosphoketolases (the fructose-6-phosphate phosphoketolase from Bifidobacterium adolescentis (strain ATCC 15703 DSM 20083 NCTC 11814 E194a) (“H2”; UniProtKB Accession No. A1A185_BIFAA; SEQ ID NOs: 1 and 3) orthe xylulose-5-phosphate/fructose-6-phosphate phosphoketolase from Collinsella aerofaciens (“D3”; UniProt KB Accession No. A0A174LGR4_9ACTN; SEQ ID NOs: 2 and 4)). Engineered phosphoketolase were generated using rational protein engineering. Structural homology models were constructed for H2 and D3. The substrate docking with Xu5P and F6P were also performed. In total, 2000 variants were designed. […]
(§1) Further biochemical characterization of selected variants was conducted and the FPK activity of these variants were assessed. […] The kinetics parameters measured during biochemical characterization are summarized below in Table 5. […]
The product of FPK is coupled to ferric-hydroxamate complex production via hydroxamate reactions of its product with hydroxylamine and ferric chloride. Ferric-hydroxamate complex production was measured by absorbance at 520 nm. […]
Cell lysate preparation was the same described as above. […] The reaction was incubated at room temperature for 10 minutes and then sent to the plate reader for absorption at 520 nm.

[2] = molecular target: T1, Bifidobacterium adolescentis fructose-6-phosphate phosphoketolase (H2), wild type, SEQ ID NO: 1 (Bifidobacterium adolescentis, UniProt A1A185); test: as above; type: biochemical
T1 sequence (A1A185 with tags, fused parts or gaps): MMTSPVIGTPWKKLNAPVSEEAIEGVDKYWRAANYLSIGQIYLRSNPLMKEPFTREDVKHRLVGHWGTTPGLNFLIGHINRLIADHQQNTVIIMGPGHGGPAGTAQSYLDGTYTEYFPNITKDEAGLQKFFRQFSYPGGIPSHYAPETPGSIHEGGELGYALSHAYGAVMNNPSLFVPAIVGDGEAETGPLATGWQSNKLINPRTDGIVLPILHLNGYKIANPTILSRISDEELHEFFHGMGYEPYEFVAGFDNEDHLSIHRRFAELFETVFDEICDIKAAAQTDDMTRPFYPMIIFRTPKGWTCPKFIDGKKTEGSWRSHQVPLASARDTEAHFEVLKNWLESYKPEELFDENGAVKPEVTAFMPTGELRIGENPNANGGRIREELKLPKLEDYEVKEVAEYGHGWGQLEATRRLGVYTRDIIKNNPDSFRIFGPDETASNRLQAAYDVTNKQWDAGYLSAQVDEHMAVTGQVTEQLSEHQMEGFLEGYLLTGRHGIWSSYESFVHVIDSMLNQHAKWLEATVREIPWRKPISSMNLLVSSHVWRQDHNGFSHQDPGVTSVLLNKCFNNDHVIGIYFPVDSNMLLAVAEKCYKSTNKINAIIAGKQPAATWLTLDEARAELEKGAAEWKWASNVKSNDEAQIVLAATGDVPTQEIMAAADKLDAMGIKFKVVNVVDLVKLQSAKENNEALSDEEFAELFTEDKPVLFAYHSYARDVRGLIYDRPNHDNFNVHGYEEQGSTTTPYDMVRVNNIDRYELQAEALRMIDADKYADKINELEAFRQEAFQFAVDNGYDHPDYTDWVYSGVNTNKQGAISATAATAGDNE
Procedure: Further biochemical characterization of selected variants was conducted and the FPK activity of these variants were assessed. […] The FPK kinetics assay was based on the E4PDH based Colorimetric Assay described herein for the 12 hits and the two controls (SEQ ID NO: 1 and SEQ ID NO: 2).
The product of FPK is coupled to ferric-hydroxamate complex production via hydroxamate reactions of its product with hydroxylamine and ferric chloride. Ferric-hydroxamate complex production was measured by absorbance at 520 nm. This is an end-point assay.
Cell lysate preparation was the same described as above. One typical reaction contained 7.5 uL lysate and 67.5 μL reaction buffer. Reaction buffer contained 1 mM of NADH and 5 mM of F6P substrate for primary screening. 2 mM of F6P was used in secondary screening in reaction buffer 1. The reaction in a plate was incubated at room temperature for 30 minutes. After the 30-min incubation, 25 μL of 2 M hydroxylamine in Tris-HCl solution was added into one reaction to initiate the hydroxamate reaction. The reaction was incubated at room temperature for 10 minutes and then sent to the plate reader for absorption at 520 nm.

[3] = system: Collinsella aerofaciens xylulose-5-phosphate/fructose-6-phosphate phosphoketolase (D3), wild type, SEQ ID NO: 2; test: Kinetics, E4PDH based colorimetric assay for FPK activity (F6P); type: biochemical
Source text: Mutagenesis techniques were used to generate engineered phosphoketolases based on one of two template phosphoketolases (the fructose-6-phosphate phosphoketolase from Bifidobacterium adolescentis (strain ATCC 15703 DSM 20083 NCTC 11814 E194a) (“H2”; UniProtKB Accession No. A1A185_BIFAA; SEQ ID NOs: 1 and 3) orthe xylulose-5-phosphate/fructose-6-phosphate phosphoketolase from Collinsella aerofaciens (“D3”; UniProt KB Accession No. A0A174LGR4_9ACTN; SEQ ID NOs: 2 and 4)). Engineered phosphoketolase were generated using rational protein engineering. Structural homology models were constructed for H2 and D3. The substrate docking with Xu5P and F6P were also performed. In total, 2000 variants were designed. There are 1031 constructs designed based on H2, and 969 based on D3. 1999 constructs were received from DNA synthesis. […]
as §1
The product of FPK is coupled to NADH production via a one-step enzymatic reaction of its product with E4PDH. NADH production overtime was measured by absorbance at 340 nm. […]
5 μL of half diluted cell lysate was added into 45 μL of reaction buffer. […] The reaction was recorded for a 10-min kinetics reading at 340 nm at room temperature.

[4] = molecular target: T1, Bifidobacterium adolescentis fructose-6-phosphate phosphoketolase (H2), wild type, SEQ ID NO: 1; test: as above; type: biochemical
[5] = substrate: O=P(O)(O)OC[C@H]1OC(O)(CO)[C@@H](O)[C@@H]1O; test: as above; type: biochemical, Bifidobacterium adolescentis; details: other: F6P
Source text: Mutagenesis techniques were used to generate engineered phosphoketolases based on one of two template phosphoketolases (the fructose-6-phosphate phosphoketolase from Bifidobacterium adolescentis (strain ATCC 15703 DSM 20083 NCTC 11814 E194a) (“H2”; UniProtKB Accession No. A1A185_BIFAA; SEQ ID NOs: 1 and 3) orthe xylulose-5-phosphate/fructose-6-phosphate phosphoketolase from Collinsella aerofaciens (“D3”; UniProt KB Accession No. A0A174LGR4_9ACTN; SEQ ID NOs: 2 and 4)). Engineered phosphoketolase were generated using rational protein engineering. Structural homology models were constructed for H2 and D3. The substrate docking with Xu5P and F6P were also performed. In total, 2000 variants were designed. There are 1031 constructs designed based on H2, and 969 based on D3. 1999 constructs were received from DNA synthesis. The variants were then tested for XPK and/or FPK activity in in vitro primary and secondary screens as described below.
Further biochemical characterization of selected variants was conducted and the FPK activity of these variants were assessed. 12 hits were selected from the secondary screening results of the phosphoketolase library screen for in vitro biochemical characterization. All 12 of the hits selected are variants based on SEQ ID NO: 1. The kinetics parameters measured during biochemical characterization are summarized below in Table 5. The FPK kinetics assay was based on the E4PDH based Colorimetric Assay described herein for the 12 hits and the two controls (SEQ ID NO: 1 and SEQ ID NO: 2).
The product of FPK is coupled to NADH production via a one-step enzymatic reaction of its product with E4PDH. NADH production overtime was measured by absorbance at 340 nm. The reactions are listed below.
5 μL of half diluted cell lysate was added into 45 μL of reaction buffer. The reaction buffer contained an approximate amount of E4PDH enzyme, 1 mM NADH and 5 mM F6P as substrate for primary screening. 2 mM F6P was used for secondary screening. The reaction was recorded for a 10-min kinetics reading at 340 nm at room temperature.

Km [1]: 9.31 mM
kcat [1]: 19.57 s⁻¹
Km [2]: 1.04 mM
kcat [2]: 5.933 s⁻¹
Km [3]: 27.9 mM
kcat [3]: 7.824 s⁻¹
Km [4]: 4.89 mM
kcat [4]: 30.07 s⁻¹
Molecule: O=P(O)(O)OC[C@H]1OC(O)(CO)[C@@H](O)[C@@H]1O (stereo partly drawn) [F6P, D-fructose-6-phosphate]

B1: Bifidobacterium adolescentis fructose-6-phosphate phosphoketolase (H2, SEQ ID NO: 1) variant H239R (Bifidobacterium adolescentis ATCC 15703; H238R) (protein)
chain: T1 sequence (A1A185 with tags, fused parts or gaps) with H239R
Km [5]: 2.432 mM
kcat [5]: 57.9 s⁻¹
kcat/Km [5]: 23800 M⁻¹ s⁻¹

B2: Bifidobacterium adolescentis fructose-6-phosphate phosphoketolase (H2, SEQ ID NO: 1) variant Q759L (Bifidobacterium adolescentis ATCC 15703; Q758L) (protein)
chain: T1 sequence (A1A185 with tags, fused parts or gaps) with Q759L
Km [5]: 3.596 mM
kcat [5]: 35.6 s⁻¹
kcat/Km [5]: 9890 M⁻¹ s⁻¹

B3: Bifidobacterium adolescentis fructose-6-phosphate phosphoketolase (H2, SEQ ID NO: 1) variant Y804W (Bifidobacterium adolescentis ATCC 15703; Y803W) (protein)
chain: T1 sequence (A1A185 with tags, fused parts or gaps) with Y804W
Km [5]: 2.86 mM
kcat [5]: 30.8 s⁻¹
kcat/Km [5]: 10800 M⁻¹ s⁻¹

B4: Bifidobacterium adolescentis fructose-6-phosphate phosphoketolase (H2, SEQ ID NO: 1) variant Y799I (Bifidobacterium adolescentis ATCC 15703; Y798I) (protein)
chain: T1 sequence (A1A185 with tags, fused parts or gaps) with Y799I
Km [5]: 4.53 mM
kcat [5]: 33.6 s⁻¹
kcat/Km [5]: 7430 M⁻¹ s⁻¹

B5: Bifidobacterium adolescentis fructose-6-phosphate phosphoketolase (H2, SEQ ID NO: 1) variant C567S (Bifidobacterium adolescentis ATCC 15703; C566S) (protein)
chain: T1 sequence (A1A185 with tags, fused parts or gaps) with C567S
Km [5]: 3.046 mM
kcat [5]: 26.4 s⁻¹
kcat/Km [5]: 8660 M⁻¹ s⁻¹

B6: Bifidobacterium adolescentis fructose-6-phosphate phosphoketolase (H2, SEQ ID NO: 1) variant M483C (Bifidobacterium adolescentis ATCC 15703; M482C) (protein)
chain: T1 sequence (A1A185 with tags, fused parts or gaps) with M483C
Km [5]: 2.299 mM
kcat [5]: 34 s⁻¹
kcat/Km [5]: 14800 M⁻¹ s⁻¹

B7: Bifidobacterium adolescentis fructose-6-phosphate phosphoketolase (H2, SEQ ID NO: 1) variant H257P (Bifidobacterium adolescentis ATCC 15703; H256P) (protein)
chain: T1 sequence (A1A185 with tags, fused parts or gaps) with H257P
Km [5]: 2.422 mM
kcat [5]: 25 s⁻¹
kcat/Km [5]: 10300 M⁻¹ s⁻¹

B8: Bifidobacterium adolescentis fructose-6-phosphate phosphoketolase (H2, SEQ ID NO: 1) variant S504A (Bifidobacterium adolescentis ATCC 15703; S503A) (protein)
chain: T1 sequence (A1A185 with tags, fused parts or gaps) with S504A
Km [5]: 3.347 mM
kcat [5]: 26.3 s⁻¹
kcat/Km [5]: 7850 M⁻¹ s⁻¹
